The target of experiment [1] is T1, CD37 (human) (UniProt P11049).
T1 sequence: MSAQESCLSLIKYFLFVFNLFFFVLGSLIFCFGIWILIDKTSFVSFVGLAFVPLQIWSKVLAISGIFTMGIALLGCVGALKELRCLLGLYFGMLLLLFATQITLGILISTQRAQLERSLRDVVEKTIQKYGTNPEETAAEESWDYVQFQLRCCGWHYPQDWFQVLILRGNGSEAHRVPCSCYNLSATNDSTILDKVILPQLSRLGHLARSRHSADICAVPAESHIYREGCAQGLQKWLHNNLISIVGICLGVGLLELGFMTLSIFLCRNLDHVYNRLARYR

The target in experiment [2] is T1, CD37 (human). The source holds these as a separate data set.

As for “TRU-016 [G28-1 scFv VH11S (SSC-P)H WCH2 WCH3] (Fc fusion)”, in experiment [1], the Annexin V Positive, Bjab cells, 20 µg/mL SMIP with goat anti-human IgG crosslinking (Annexin V Positive) was determined as 30.6.
As to “TRU-016, protein A purified (unfractionated) (Fc fusion)”, the Annexin V-PI staining of Ramos cells after 24 hours in experiment [2] was determined as 32.8%.

The record behind these values is patent US20080279850A1.
